According to the Human Domainome abundance scans (Beltran et al. 2025):

B1: Homeobox protein cut-like 1, residues 941 to 1008; numbered along this chain, P39880 (parent)
chain: QEVDTIELTRQVKEKLAKNGICQRIFGEKVLGLSQGSVSDMLSRPKPWSKLTQKGREPFIRMQLWLNG

Variants of: B1
Assay: abundance fitness (aPCA) (normalised: wild type 0, dead -1); higher = more abundant; growth selection in yeast, the domain comes from the species named
Conditions: Homo sapiens

Abundance fitness of substitutions, site by site:
S34: R 0.02, T -0.196, V -0.137, W -0.059, Y -0.108
Q35: A 0.039, D 0.066, E 0.124, F 0.044, G -0.003, H -0.024, I -0.116, K -0.016, L -0.003, M -0.033, N -0.353, P 0.121, S 0.034, T 0.01, V 0, W 0.064, Y 0.015
G36: A 0.067, C -0.02, D 0.028, E 0.107, F -0.026, I -0.078, K -0.026, L -0.025, M -0.058, N -0.014, P -0.055, Q 0.039, R 0.033, S -0.02, T 0.003, V -0.084
S37: A 0.118, C 0.066, D 0.251, E 0.052, F -0.014, G -0.123, I -0.076, M -0.126, N -0.033, P -0.189, Q 0.111, R -0.099, T -0.104, V -0.039, W -0.108, Y -0.173
V38: A -0.215, C -0.096, D -0.188, E -0.282, F 0.048, G -0.263, H -0.308, I -0.022, K -0.161, L -0.026, M -0.147, N -0.331, P -0.364, Q -0.273, R -0.22, S -0.086, T 0.164, W 0.063, Y 0.027
S39: A 0.005, D -0.04, E 0.031, F -0.156, G 0.019, I 0.037, K 0.039, M 0.01, N 0.029, P -0.126, Q -0.007, R 0.007, T 0.003, V -0.073, W -0.28, Y -0.094
D40: A -0.158, C -0.209, E 0.044, F -0.251, H -0.118, I -0.349, K -0.352, N -0.133, P -0.102, R -0.514, S -0.127, T -0.121, V -0.339, W -0.155, Y -0.212
M41: A 0.023, C 0.009, D -0.194, E -0.335, F 0.003, G -0.239, H -0.291, I -0.016, K -0.089, L 0.027, N -0.275, P -0.289, Q -0.171, S -0.263, T -0.107, V -0.007, W 0.022, Y -0.011
L42: A -0.324, D -0.393, E -0.281, F -0.158, G -0.275, H -0.184, I -0.171, K -0.04, M -0.215, N -0.405, P -0.117, Q -0.376, R -0.224, S -0.236, T -0.424, V -0.264, W -0.134, Y -0.481
S43: A 0.007, C -0.153, E 0.014, F -0.373, G -0.251, H 0.049, I -0.187, K -0.028, L -0.139, M 0.079, N 0.066, P -0.304, Q 0.029, R -0.125, T -0.01, V -0.064, W -0.407, Y -0.174
R44: A 0, C -0.007, D 0.12, E -0.176, F -0.041, G -0.118, H -0.125, I -0.189, K 0.098, N 0.054, P -0.314, Q -0.241, V -0.175, Y -0.029
P45: A -0.233, C -0.123, D -0.456, E -0.526, F -0.161, G -0.309, H -0.124, I -0.147, K -0.161, L -0.202, M -0.269, N -0.227, Q -0.461, R -0.184, S -0.063, T -0.224, V -0.139, W -0.108, Y -0.282
K46: A -0.075, C -0.369, E -0.013, F -0.227, G -0.315, I -0.184, L -0.07, M -0.15, N -0.461, P 0.112, Q -0.041, R -0.099, S 0.009, T -0.205, V -0.112, W -0.285, Y -0.059
P47: A -0.084, C -0.086, D -0.158, E -0.067, F -0.012, G -0.123, H -0.133, I -0.286, K -0.029, L -0.029, M -0.12, N -0.371, Q -0.068, R -0.134, S -0.086, V -0.079, W 0.056, Y -0.25
W48: A -0.904, D -1.08, E -0.774, F -0.311, G -0.919, H -1.11, I -1, L -0.398, M -0.65, N -1.46, P -0.999, Q -0.867, R -0.729, S -0.817, T -1.1, V -0.672, Y -0.78
S49: A -0.072, C -0.237, D -0.241, E -0.151, F -0.19, G -0.133, H 0.025, I -0.43, K 0.029, M -0.346, P -0.231, Q -0.169, R -0.011, T -0.131, V -0.177, W -0.198, Y -0.255
K50: A -0.098, C -0.07, D 0.041, E 0.022, F -0.141, G -0.194, H -0.184, L -0.104, M -0.012, N -0.221, Q 0.028, S -0.04, T -0.059, V -0.066, W -0.247, Y -0.138
L51: A -0.723, C -0.439, E -0.929, G -1.04, I -0.113, M -0.125, P -1.07, Q -0.969, R -0.93, S -0.92, T -0.745, V -0.394, W -0.08, Y -0.474
T52: A -0.033, C -0.111, E -0.343, F -0.187, G -0.216, H -0.394, I -0.009, K -0.109, L -0.018, M -0.157, N -0.009, P -0.343, Q -0.22, S 0.085, Y -0.143
Q53: C 0.012, D 0.032, E -0.139, F -0.217, G -0.132, H -0.179, I -0.119, K 0.076, L -0.082, M -0.095, N -0.045, P 0.031, R -0.053, S -0.022, T -0.014, V -0.095, W -0.173, Y -0.27
K54: A 0.011, C -0.317, D -0.098, E 0.159, F -0.199, G -0.223, H -0.111, I -0.192, L -0.174, M -0.263, N -0.319
